Data taken from doi:10.1101/2021.10.18.464377.

Legend:
[1] = molecular target: Synaptotagmin 1 wild type expressed in HEK 293 cells (UniProt P21707); experiment: immunostaining of cells or tissue
[2] = molecular target: Synaptotagmin 2 wild type expressed in HEK 293 or PC12 cells (UniProt P29101); experiment: immunostaining of cells or tissue
UniProt P29101, sequence (P29101 whole entry): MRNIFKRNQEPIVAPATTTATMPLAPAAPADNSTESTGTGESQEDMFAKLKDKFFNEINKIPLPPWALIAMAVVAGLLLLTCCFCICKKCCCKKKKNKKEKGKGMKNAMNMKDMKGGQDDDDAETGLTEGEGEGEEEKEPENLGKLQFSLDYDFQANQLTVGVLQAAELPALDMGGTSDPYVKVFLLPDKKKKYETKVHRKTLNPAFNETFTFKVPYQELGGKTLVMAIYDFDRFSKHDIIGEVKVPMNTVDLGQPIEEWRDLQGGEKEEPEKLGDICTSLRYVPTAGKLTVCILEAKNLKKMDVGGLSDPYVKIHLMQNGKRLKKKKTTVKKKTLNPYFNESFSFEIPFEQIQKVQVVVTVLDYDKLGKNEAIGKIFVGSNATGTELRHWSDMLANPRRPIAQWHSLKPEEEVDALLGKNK

UniProt P21707, sequence (P21707 whole entry): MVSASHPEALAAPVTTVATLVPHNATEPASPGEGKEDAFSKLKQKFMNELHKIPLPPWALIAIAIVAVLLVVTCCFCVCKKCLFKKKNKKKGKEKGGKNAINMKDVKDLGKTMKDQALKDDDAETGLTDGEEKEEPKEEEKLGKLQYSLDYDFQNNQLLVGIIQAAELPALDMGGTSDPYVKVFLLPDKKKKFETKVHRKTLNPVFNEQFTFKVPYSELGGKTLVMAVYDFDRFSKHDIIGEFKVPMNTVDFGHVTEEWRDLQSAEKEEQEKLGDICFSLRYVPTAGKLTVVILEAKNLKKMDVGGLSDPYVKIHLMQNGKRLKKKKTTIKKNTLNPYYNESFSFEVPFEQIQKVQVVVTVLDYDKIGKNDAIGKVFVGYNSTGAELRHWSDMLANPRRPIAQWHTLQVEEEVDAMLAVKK

Botulinum neurotoxin serotype B (B1 Okra strain) with non-toxic accessory proteins (complex)
normalised BoNT/B immunoreactivity (IR, relative to WT) [1]: 1
normalised BoNT/B immunoreactivity (IR, relative to WT) [2]: 1
